# Measurements from patent EP4725970A1 (Fortvita Biologics Inc., dated 2026).
# Read-outs that look alike come from different tables or passages of the source.
# T1: cyno CD3E&G-His/Free (cynomolgus monkey, UniProt Q95LI5 22-117; Q95LI7 23-113)
# T1 construct: Bought recombinant heterodimer; also called monkey CD3 E&G
# T1 sequence (looked up) 1: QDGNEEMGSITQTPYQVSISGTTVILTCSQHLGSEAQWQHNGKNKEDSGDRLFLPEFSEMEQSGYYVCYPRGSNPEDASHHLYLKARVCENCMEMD
# T1 sequence (looked up) 2: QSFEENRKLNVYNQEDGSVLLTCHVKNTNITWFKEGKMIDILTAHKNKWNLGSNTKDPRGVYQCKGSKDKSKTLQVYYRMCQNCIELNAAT
# T2: human BCMA (full-length, on cells) (human, UniProt Q02223 1-184)
# T2 sequence: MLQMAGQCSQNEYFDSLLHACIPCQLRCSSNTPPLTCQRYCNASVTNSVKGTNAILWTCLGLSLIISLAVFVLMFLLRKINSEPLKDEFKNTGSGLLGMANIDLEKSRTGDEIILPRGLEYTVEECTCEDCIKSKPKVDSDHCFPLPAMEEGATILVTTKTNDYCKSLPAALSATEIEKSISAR
# Legend:
# human CD3E&G-His/Free = target: T3, human CD3E&G-His/Free (human, UniProt P07766 23-126; P09693 23-116); assay: BLI (Octet), 1:1 fit
# T3 construct: Bought recombinant heterodimer; 'His/Free' as printed (one chain His-tagged); also called human CD3 E&G heterodimer
# T3 sequence (P07766 23-126, chain 1 of 2): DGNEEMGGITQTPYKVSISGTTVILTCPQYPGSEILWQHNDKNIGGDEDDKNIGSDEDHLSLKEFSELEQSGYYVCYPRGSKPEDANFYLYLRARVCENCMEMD
# T3 sequence (P09693 23-116, chain 2 of 2): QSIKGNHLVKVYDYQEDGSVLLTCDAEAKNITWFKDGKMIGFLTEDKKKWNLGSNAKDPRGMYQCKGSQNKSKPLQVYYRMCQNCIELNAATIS
# cyno CD3E&G-His/Free = target: T1, cyno CD3E&G-His/Free; assay: BLI (Octet), 1:1 fit
# Cyno BCMA-His = target: T4, Cyno BCMA-His (cynomolgus monkey, UniProt A0A2K5UD97 1-53); assay: BLI (Octet), 1:1 fit
# T4 construct: also called Cyno BCMA (ACRO BCA-C52H7); monkey BCMA
# T4 sequence (A0A2K5UD97 entry or part of it): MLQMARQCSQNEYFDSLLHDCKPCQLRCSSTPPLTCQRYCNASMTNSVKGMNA
# [1] = target: T2, human BCMA (full-length, on cells); assay: cell-based or functional assay
# [2] = target: T5, human CD3 (on Jurkat cells and human T cells) (human, UniProt P07766 23-207); assay: flow cytometry, Jurkat cells
# T5 construct: whole, on cells; the other chains of the complex on the cells are not described; also called CD3E
# T5 sequence (P07766 23-207): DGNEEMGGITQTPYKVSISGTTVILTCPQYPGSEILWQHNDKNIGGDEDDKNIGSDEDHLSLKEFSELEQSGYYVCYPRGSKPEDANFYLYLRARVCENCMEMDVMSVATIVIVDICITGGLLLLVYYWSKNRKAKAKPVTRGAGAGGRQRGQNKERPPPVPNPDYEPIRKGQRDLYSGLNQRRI
# [3] = target: T5, human CD3 (on Jurkat cells and human T …); assay: flow cytometry, human CD4 T cells
# [4] = target: T5, human CD3 (on Jurkat cells and human T …); assay: flow cytometry, human CD8 T cells
# [5] = target: T6, cynomolgus monkey BCMA (full-length, on cells) (cynomolgus monkey, UniProt A0A2K5UD97 1-183); assay: flow cytometry, GS-CHO-cynoBCMA cells
# T6 construct: whole, on cells; also called cynoBCMA; GS-CHO-cynoBCMA
# T6 sequence (A0A2K5UD97 entry or part of it): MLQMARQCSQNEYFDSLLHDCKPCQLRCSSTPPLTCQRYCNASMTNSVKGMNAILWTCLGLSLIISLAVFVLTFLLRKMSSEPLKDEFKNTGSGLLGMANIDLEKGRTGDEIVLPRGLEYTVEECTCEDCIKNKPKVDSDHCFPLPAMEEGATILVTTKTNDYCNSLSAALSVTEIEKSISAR
# [6] = target: T2, human BCMA (full-length, on cells); assay: cell-based or functional assay; remark: listed apart in the source
# [7] = target: T2, human BCMA (full-length, on cells); assay: flow cytometry, GS-CHO-hBCMA cells
# [8] = target: T2, human BCMA (full-length, on cells); assay: cell-based or functional assay; remark: listed apart in the source
# [9] = target: T2, human BCMA (full-length, on cells); assay: flow cytometry, GS-CHO-hBCMA cells; remark: listed apart in the source
Binder,Kd (human CD3E&G-His/Free),koff (human CD3E&G-His/Free),kon (human CD3E&G-His/Free),Kd (cyno CD3E&G-His/Free),koff (cyno CD3E&G-His/Free),kon (cyno CD3E&G-His/Free),Kd (Cyno BCMA-His),koff (Cyno BCMA-His),kon (Cyno BCMA-His),"EC50 of PBMC killing of H929 ko GPRC5D cells, donor1 [1]",EC50 [2],EC50 [3],EC50 [4],EC50 [5],EC50 of PBMC killing of H929 ko GPRC5D cells (LDH) [6],EC50 [7],binding result (human CD3E&G-His/Free),binding result (cyno CD3E&G-His/Free),EC50 of PBMC killing of H929 ko GPRC5D cells (LDH) [8],EC50 [9]
"B3-7F5.3 (87) (7F5.3_sp34.87_497_triFab) (trispecific antibody, human IgG1, kappa, lambda, L234A L235A, also called Exemplary antibody No. 5) heavy 1: not shown light 1: not shown heavy 2: not shown light 2: DIQMTQSPSSLSASVGDRVTITCRASQSISRYLNWYQDKPGKAPKLLIYAASSLQSGVPSRFSGSGSGTDFTLTISSLQPEDFATYYCQQKYFDITFGGGTKVEIKRTVAAPSVFIFPPSDECLKSGTASVVCLLNNFYPREAKVQWKVDNALQSGNSQESVTEQDSKDSTYSLSSTLTLSKADYEKHKVYACEVTHQGLSSPVTKSFNRGES light 3: QAVVTQEPSLTVSPGGTVTLTCRSSTGAVTTSNYANWVQKKPGQAPRGLIGGTNKRAPGVPARFSGSLLGDKAALTLLGAQPEDEAEYYCALWYSNLWVFGQGTKLTVLGQPKAAPSVTLFPPSSEELQANKATLVCLISDFYPGAVTVAWKADSSPVKAGVETTTPSKQSNNKYAASSYLSLTPEQWKSHRSYSCQVTHEGSTVEKTVAPTECS",64.1 nM,0.0152 s⁻¹,236000 M⁻¹ s⁻¹,58.6 nM,0.012 s⁻¹,205000 M⁻¹ s⁻¹,0.244 nM,0.0002 s⁻¹,821000 M⁻¹ s⁻¹,0.167 nM,,,,,,,,,,
"JNJ-BCMA/CD3 (Teclistamab) (bispecific antibody, human IgG4 S228P, lambda, F234A L235A, also called J&J BCMAxCD3) heavy 1: not shown light 1: SYVLTQPPSVSVAPGQTARITCGGNNIGSKSVHWYQQPPGQAPVVVVYDDSDRPSGIPERFSGSNSGNTATLTISRVEAGDEAVYYCQVWDSSSDHVVFGGGTKLTVLGQPKAAPSVTLFPPSSEELQANKATLVCLISDFYPGAVTVAWKGDSSPVKAGVETTTPSKQSNNKYAASSYLSLTPEQWKSHRSYSCQVTHEGSTVEKTVAPTECS heavy 2: EVQLVESGGGLVQPGGSLRLSCAASGFTFNTYAMNWVRQAPGKGLEWVARIRSKYNNYATYYAASVKGRFTISRDDSKNSLYLQMNSLKTEDTAVYYCARHGNFGNSYVSWFAYWGQGTLVTVSSASTKGPSVFPLAPCSRSTSESTAALGCLVKDYFPEPVTVSWNSGALTSGVHTFPAVLQSSGLYSLSSVVTVPSSSLGTKTYTCNVDHKPSNTKVDKRVESKYGPPCPPCPAPEAAGGPSVFLFPPKPKDTLMISRTPEVTCVVVDVSQEDPEVQFNWYVDGVEVHNAKTKPREEQFNSTYRVVSVLTVLHQDWLNGKEYKCKVSNKGLPSSIEKTISKAKGQPREPQVYTLPPSQEEMTKNQVSLTCLVKGFYPSDIAVEWESNGQPENNYKTTPPVLDSDGSFLLYSKLTVDKSRWQEGNVFSCSVMHEALHNHYTQKSLSLSLGK light 2: QTVVTQEPSLTVSPGGTVTLTCRSSTGAVTTSNYANWVQQKPGQAPRGLIGGTNKRAPGTPARFSGSLLGGKAALTLSGVQPEDEAEYYCALWYSNLWVFGGGTKLTVLGQPKAAPSVTLFPPSSEELQANKATLVCLISDFYPGAVTVAWKADSSPVKAGVETTTPSKQSNNKYAASSYLSLTPEQWKSHRSYSCQVTHEGSTVEKTVAPTECS",15.4 nM,0.0057 s⁻¹,370000 M⁻¹ s⁻¹,12.1 nM,0.00481 s⁻¹,396000 M⁻¹ s⁻¹,17.5 nM,0.0338 s⁻¹,1.94e+06 M⁻¹ s⁻¹,,6.39 nM,25.9 nM,24.6 nM,829 nM,,,,,,
"B3-7F5.3 (24) (7F5.3_sp34.24_497_triFab) (trispecific antibody, human IgG1, kappa, lambda, L234A L235A, also called Exemplary antibody No. 6) heavy 1: not shown light 1: not shown heavy 2: not shown light 2: DIQMTQSPSSLSASVGDRVTITCRASQSISRYLNWYQDKPGKAPKLLIYAASSLQSGVPSRFSGSGSGTDFTLTISSLQPEDFATYYCQQKYFDITFGGGTKVEIKRTVAAPSVFIFPPSDECLKSGTASVVCLLNNFYPREAKVQWKVDNALQSGNSQESVTEQDSKDSTYSLSSTLTLSKADYEKHKVYACEVTHQGLSSPVTKSFNRGES light 3: QAVVTQEPSLTVSPGGTVTLTCRSSTGAVTTSNYANWVQKKPGQAPRGLIGGTNKRAPGVPARFSGSLLGDKAALTLLGAQPEDEAEYYCALWYSNLWVFGQGTKLTVLGQPKAAPSVTLFPPSSEELQANKATLVCLISDFYPGAVTVAWKADSSPVKAGVETTTPSKQSNNKYAASSYLSLTPEQWKSHRSYSCQVTHEGSTVEKTVAPTECS",14.4 nM,0.00874 s⁻¹,608000 M⁻¹ s⁻¹,10.2 nM,0.00675 s⁻¹,662000 M⁻¹ s⁻¹,,,,,,43.4 nM,42.4 nM,9.69 nM,0.0751 nM,7.36 nM,,,,
REGN-BCMA/CD3 (REGN5458) (bispecific antibody) VH: EVQLVESGGGLVQPGGSLRLSCAASGFTFSNFWMTWVRQAPGKGLEWVANMNQDGSEKYYVDSVKGRFTISRDNAKSSLYLQMNSLRAEDTAVYYCARDREYCISTSCYDDFDYWGQGTLVTVSS VL: not shown EVQLVESGGGLVQPGRSLRLSCAASGFTFDDYSMHWVRQAPGKGLEWVSGISWNSGSKGYADSVKGRFTISRDNAKNSLYLQMNSLRAEDTALYYCAKYGSGYGKFYHYGLDVWGQGTTVTVSS,,,,,,,14 nM,0.0108 s⁻¹,767000 M⁻¹ s⁻¹,0.0395 nM,12 nM,33.4 nM,31.9 nM,1320 nM,,59.2 nM,no binding (tested: 100 nM),no binding (tested: 100 nM),0.0375 nM,76.1 nM
"Roche-BCMA/CD3 (Alnuctamab) (bispecific antibody, human IgG1, kappa, L234A L235A, also called Roche-BCMAxCD3) EVQLLESGGGLVQPGGSLRLSCAASGFTFSTYAMNWVRQAPGKGLEWVSRIRSKYNNYATYYADSVKGRFTISRDDSKNTLYLQMNSLRAEDTAVYYCVRHGNFGNSYVSWFAYWGQGTLVTVSSASVAAPSVFIFPPSDEQLKSGTASVVCLLNNFYPREAKVQWKVDNALQSGNSQESVTEQDSKDSTYSLSSTLTLSKADYEKHKVYACEVTHQGLSSPVTKSFNRGEC heavy 1: not shown light: EIVLTQSPGTLSLSPGERATLSCRASQSVSDEYLSWYQQKPGQAPRLLIHSASTRATGIPDRFSGSGSGTDFTLAISRLEPEDFAVYYCQQYGYPPDFTFGQGTKVEIKRTVAAPSVFIFPPSDRKLKSGTASVVCLLNNFYPREAKVQWKVDNALQSGNSQESVTEQDSKDSTYSLSSTLTLSKADYEKHKVYACEVTHQGLSSPVTKSFNRGEC heavy 2: EVQLLESGGGLVQPGGSLRLSCAASGFTFSDNAMGWVRQAPGKGLEWVSAISGPGSSTYYADSVKGRFTISRDNSKNTLYLQMNSLRAEDTAVYYCAKVLGWFDYWGQGTLVTVSSASTKGPSVFPLAPSSKSTSGGTAALGCLVEDYFPEPVTVSWNSGALTSGVHTFPAVLQSSGLYSLSSVVTVPSSSLGTQTYICNVNHKPSNTKVDEKVEPKSCDKTHTCPPCPAPEAAGGPSVFLFPPKPKDTLMISRTPEVTCVVVDVSHEDPEVKFNWYVDGVEVHNAKTKPREEQYNSTYRVVSVLTVLHQDWLNGKEYKCKVSNKALGAPIEKTISKAKGQPREPQVCTLPPSRDELTKNQVSLSCAVKGFYPSDIAVEWESNGQPENNYKTTPPVLDSDGSFFLVSKLTVDKSRWQQGNVFSCSVMHEALHNHYTQKSLSLSPGK",13 nM,0.00469 s⁻¹,361000 M⁻¹ s⁻¹,,,,0.89 nM,0.00125 s⁻¹,1.4e+06 M⁻¹ s⁻¹,0.0045 nM,,,,3.81 nM,0.0161 nM,3.08 nM,,,,
